Laboratory results from paper PMC4134230.

How the values were obtained:
[1] = system: Tau (hTau42, longest isoform, unphosphorylated) (Homo sapiens); assay: SPR (equilibrium saturation); conditions: immobilized on polylysine-heparin-polylysine gold surface; 10 mM Hepes, 0.1 M NaCl, pH 7; SPR at 13-33 C, DNA immobilized on polylysine-heparin-polylysine gold surface
[2] = system: Tau (hTau42, longest isoform, unphosphorylated) (Homo sapiens); assay: SPR (kinetic); conditions: average of six determinations, 18-22 C; Kd given as 0.04 uM; immobilized on polylysine-heparin-polylysine gold surface; 10 mM Hepes, 0.1 M NaCl, pH 7; SPR at 13-33 C, DNA immobilized on polylysine-heparin-polylysine gold surface

In the case of “calf thymus DNA (activated type XV, Sigma)”, the Ka [1] is reported as 2.3 10^7 M^-1 and the Ka [2] is reported as 2.4 10^7 M^-1.
